Measured values reported in publication PMC8956199, “The mismatched nucleotides encoded in vaccinia virus flip-and-flop hairpin telomeres serve an essential role in virion maturation”.

B1: SΔ1–3 hairpin (structured_DNA)
DNA: ACATTTTTTTCTAGACACTAAATAAAATATTTAAAATATAATATTAATGTACTAAAATTATATATTAATTTACTAACTAAAGTTAGTAAATTAATATATAATTTTATAATTAATTTAATTTTACTAATTTTATTTAGTGTCTAGAAAAAAA
modifications: 5' phosphate
B2: S hairpin (VACV WR telomere, wild type) (structured_DNA)
DNA: ACATTTTTTTCTAGACACTAAATAAAATATTTAAAATATAATATTAATGTACTAAAACTTATATATTATTAATTTATCTAACTAAAGTTAGTAAATTATATATATAATTTTATAATTAATTTAATTTTACTAATTTTATTTAGTGTCTAGAAAAAAA
modifications: 5' phosphate

What was measured:
[1] = molecular target: T1, I1 telomere-binding protein (UniProt P16714 1-312); experiment: EMSA, competition; 700 ng poly d(IC), 0-300 ng unlabeled S hairpin; behaved much like S; settings: protein: recombinant; tags: His6 (pET151/D-TOPO vector); label: 3' fill-in with Alexa Fluor 647-aha-dUTP (Results say Cy5-dUTP)
T1 sequence: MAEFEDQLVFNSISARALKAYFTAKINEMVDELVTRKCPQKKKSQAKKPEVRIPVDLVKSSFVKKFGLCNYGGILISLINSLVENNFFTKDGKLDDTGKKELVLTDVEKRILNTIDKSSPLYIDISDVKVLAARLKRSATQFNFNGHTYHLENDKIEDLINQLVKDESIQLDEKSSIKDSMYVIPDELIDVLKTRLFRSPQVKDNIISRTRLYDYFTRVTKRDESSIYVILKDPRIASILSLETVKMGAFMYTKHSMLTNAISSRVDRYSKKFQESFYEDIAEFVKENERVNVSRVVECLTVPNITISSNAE

[2] = molecular target: T1, I1 telomere-binding protein; experiment: EMSA, competition; 700 ng poly d(IC), 0-300 ng unlabeled S hairpin; reference; settings: protein: recombinant; tags: His6 (pET151/D-TOPO vector); label: 3' fill-in with Alexa Fluor 647-aha-dUTP (Results say Cy5-dUTP)

Binder | binding result [1] | binding result [2]
B1 | binds | –
B2 | – | binds
